Assay results taken from patent US20200283482A1, “BICYCLIC PEPTIDE LIGAND PRR-A CONJUGATES AND USES THEREOF” (BicycleRD Limited, priority 2017, published 2020).
Read-outs that look alike come from different tables or passages of the source. Starred links: 1 amine or outer side, 2 acyl side, 3 side chain; linkers in the order of their positions; H or OH if unused. Positions of bridges follow the written chain, without caps; N, C: chain ends. Non-standard residues stand in square brackets, D forms with d. Residues, ends and D or L forms follow the SMILES beside them. *: point of attachment. X11 = CCCOc1nc(NC(=O)OCc2ccc(NC(=O)[C@H](CCCNC(N)=O)NC(=O)[C@@H](NC(=O)Cn3cc(CCC(=O)*)nn3)C(C)C)cc2)c2[nH]c(=O)n(Cc3ccc(OCCN(C)C)nc3)c2n1; X3 = CCOCc1nc2c(NC(=O)OCc3ccc(NC(=O)[C@H](CCCNC(N)=O)NC(=O)[C@@H](NC(=O)Cn4cc(CCC(=O)*)nn4)C(C)C)cc3)nc3ccccc3c2n1CC(C)(C)O; X2 = CCOCc1nc2c(NC(=O)OCCSCC(=O)*)nc3ccccc3c2n1CC(C)(C)O; 1Nal = N[C@@H](Cc1cccc2ccccc12)C(=O)O; TBMB = c1c(C[*:1])cc(C[*:3])cc1C[*:2]; Tle = CC(C)(C)[C@H](N)C(=O)O; βAla = NCCC(=O)O; Sar = CNCC(=O)O

Legend:
Plasma stability, human = assay type: in vitro ADME; settings: pH 7.4
Procedure: (§1) The pooled frozen mouse, rat, dog, monkey or human plasma is thawed in a water bath at 37° C. prior to experiment. Plasma is centrifuged at 4000 rpm for 5 min and the clots are removed if any. […] For positive controls, 100 μM intermediate solution is prepared by diluting 20 μL of the stock solution with 180 μL 45% MeOH/H2O. […] For compounds I-7 to […]-17, […]-22, and […]-33, at each time point (0, 1, 2, 4, 6 and 24 hr), reactions were stopped by removing the plates from water bath and 200 μL 20 mM NH4OAC mix well first and then adding 800 μL of ice-cold stop solution (200 ng/mL Labetalol, 200 ng/mL Tolbutamide, 500 ng/mL N6-Ben and 40 mM DBAA in 100% Methanol). […] Sample plates were vortexed immediately on a plate shaker at 800 rpm for 10 min and then centrifuged at 4,000 rpm for 10 min. An aliquot of supernatant (200 μL) is transferred from each well before submitting to LC-MS/MS analysis. The percentage of test compound remaining at the individual time points relative to the 0 hour sample is calculated using following equation: Percent Remaining=100×(PAR at appointed incubation time/PAR at T0 time) where PAR is the peak area ratio of analyte versus internal standard (IS).

Plasma stability, cyno = assay type: in vitro ADME; settings: cynomolgus monkey, pH 7.4
Procedure: as §1

Plasma stability, rat = assay type: in vitro ADME; settings: pH 7.4
Procedure: as §1

Plasma stability, mouse = assay type: in vitro ADME; settings: pH 7.4
Procedure: as §1

Plasma stability, dog = assay type: in vitro ADME; settings: pH 7.4
Procedure: as §1

Blood stability, mouse = assay type: in vitro ADME, CD-1 mouse; settings: male, CD-1, mouse
Procedure: CD-1 mouse blood (n≥2, male, fasted overnight) is collected from animals housed at an internal facility. (EDTA-K2 is used as anticoagulant)
The test compounds and positive control stock solutions are prepared to 10 mM in DMSO or ultrapure water. Control compounds bisacodyl, enalapril and propantheline known to be metabolised by blood are also incubated alongside each batch of test compounds I-7, I-22, I-24, I-25, I-27, and I-29 to I-33. The dosing solutions of test compounds and controls are prepared by diluting the stock solution with 45% MeOH/H2O to achieve 100 uM. Test compound solutions (final incubation concentration=2 μM) are incubated with blood (final DMSO concentration≤1%) at six different time points (0, 1, 2, 4, 6 and 24 hours) in duplicate (n=2). The reaction is terminated by adding 100 uL ultra-pure water, mixing well, then adding 800 uL of 100% methanol containing 200 ng/mL tolbutamide and 200 ng/mL labetalol as internal standards. Samples are then vortexed and centrifuged at 3200×g for 20 minutes. Following centrifugation, the concentration of test compound in the supernatant is determined semi-quantitatively by LC-MS/MS. The percentage of test compound remaining at the individual time points relative to the 0 hour sample is then reported. The percent remaining of test compound after incubation in blood is calculated using following equation: Percent Remaining=100×(PAR at appointed incubation time/PAR at T0 time) where PAR is the peak area ratio of analyte versus internal standard (IS).

hemopexin domain of MT1 [1] = biological target: T1, hemopexin domain of MT1 (Homo sapiens, UniProt P50281); assay: Fluorescence polarization binding to MT1-MMP hemopexin domain; settings: read-out: apparent Kd
Procedure: Direct Binding Fluorescence Polarization or Anisotropy Assays are performed by titrating a constant concentration of fluorescent tracer (here, the fluoresceinated bicyclic peptide to be studied) with its binding partner (here, the MT1-MMP hemopexin domain). As the concentration of binding partner increases during the titration, the polarization signal changes in proportion to the fraction of bound and unbound material. This allows determination of […] (Kd) quantitatively. Assay data can be fit using standard ligand binding equations.
The titrant (binding partner) concentration is varied from 0.1 nM up to typically 5 μM. The range is chosen such that the maximum change in fluorescent polarization can be observed. Buffers employed are phosphate buffered saline in the presence of 0.01% Tween. Experiments were run in black 384 well low-bind/low volume plates (Corning 3820), and the fluorescent polarization signal was measured using a BMG Pherastar FS plate reader. […]
Here, a preformed complex of PEX with the fluorescent PEX-binding tracer is titrated with free, non-fluoresceinated bicyclic peptide. […] Dissociation of the complex can be measured quantitatively, and the Kd of the competitor (titrant) to the target protein determined. The advantage of the competition method is that the affinities of non-fluoresceinated bicyclic peptides can be determined accurately and rapidly. […]

hemopexin domain of MT1 [2] = biological target: T1, hemopexin domain of MT1; settings: MT1-MMP binder formed with TBMB scaffold, as described in WO 2016/067035; cited from earlier work
[3] = Tumor localization after IV injection; assay type: in vivo; settings: mouse, mice bearing MT1-positive tumor xenografts, in less than 60 minutes, read-out: tumor localization level

With CCOCc1nc2c(NC(=O)OCc3ccc(NC(=O)[C@H](CCCNC(N)=O)NC(=O)[C@@H](NC(=O)Cn4cc(CCC(=O)NCCC(=O)N(C)CC(=O)N(C)CC(=O)N(C)CC(=O)N(C)CC(=O)N(C)CC(=O)N(C)CC(=O)N(C)CC(=O)N(C)CC(=O)N(C)CC(=O)N(C)CC(=O)N[C@@H](C)C(=O)N[C@H]5CSCc6cc7cc(c6)CSC[C@H](NC(=O)[C@@H](C)NC(=O)[C@H](Cc6cccc8ccccc68)NC(=O)[C@H](CCC(=O)O)NC(=O)[C@H](CC(N)=O)NC(=O)[C@@H](C)NC5=O)C(=O)N[C@@H](CCC(=O)O)C(=O)N[C@@H](CC(=O)O)C(=O)N[C@@H](Cc5ccccc5)C(=O)N[C@@H](Cc5ccc(O)cc5)C(=O)N[C@@H](CC(=O)O)C(=O)N[C@@H](C(C)(C)C)C(=O)N[C@H](C(N)=O)CSC7)nn4)C(C)C)cc3)nc3ccccc3c2n1CC(C)(C)O [I-22] ({X3-βAla}-[Sar][Sar][Sar][Sar][Sar][Sar][Sar][Sar][Sar][Sar]AC[dA]NE[1Nal][dA]CEDFYD[Tle]C-NH2; linker 12-18-25 via TBMB) the half-life at 2 μM (Plasma stability, human; human, plasma) was over 24 h, the half-life at 2 μM (Plasma stability, cyno; plasma) was over 24 h and the half-life at 2 μM (Plasma stability, rat; rat, plasma) was 2 to 6 h. It also gave a half-life at 2 μM (Plasma stability, mouse; mouse, plasma) of 2 to 6 h, a half-life at 2 μM (Plasma stability, dog; dog, plasma) of over 24 h and a half-life at 2 μM (Blood stability, mouse) of under 2 h.

For CCOCc1nc2c(NC(=O)OCCSCC(=O)NCCC(=O)N(C)CC(=O)N(C)CC(=O)N(C)CC(=O)N(C)CC(=O)N(C)CC(=O)N(C)CC(=O)N(C)CC(=O)N(C)CC(=O)N(C)CC(=O)N(C)CC(=O)N[C@@H](C)C(=O)N[C@H]3CSCc4cc5cc(c4)CSC[C@H](NC(=O)[C@@H](C)NC(=O)[C@H](Cc4cccc6ccccc46)NC(=O)[C@H](CCC(=O)O)NC(=O)[C@H](CC(N)=O)NC(=O)[C@@H](C)NC3=O)C(=O)N[C@@H](CCC(=O)O)C(=O)N[C@@H](CC(=O)O)C(=O)N[C@@H](Cc3ccccc3)C(=O)N[C@@H](Cc3ccc(O)cc3)C(=O)N[C@@H](CC(=O)O)C(=O)N[C@@H](C(C)(C)C)C(=O)N[C@H](C(N)=O)CSC5)nc3ccccc3c2n1CC(C)(C)O [I-7] ({X2-βAla}-[Sar][Sar][Sar][Sar][Sar][Sar][Sar][Sar][Sar][Sar]AC[dA]NE[1Nal][dA]CEDFYD[Tle]C-NH2; linker 12-18-25 via TBMB), the half-life at 2 μM (Plasma stability, human; human, plasma) was over 24 h, the half-life at 2 μM (Plasma stability, cyno; plasma) was over 24 h and the half-life at 2 μM (Plasma stability, rat; rat, plasma) was 6 to 24 h. The half-life at 2 μM (Plasma stability, mouse; mouse, plasma) was 6 to 24 h, the half-life at 2 μM (Plasma stability, dog; dog, plasma) was over 24 h and the half-life at 2 μM (Blood stability, mouse) was under 2 h.

For C[C@H](NC(=O)CN(C)C(=O)CN(C)C(=O)CN(C)C(=O)CN(C)C(=O)CN(C)C(=O)CN(C)C(=O)CN(C)C(=O)CN(C)C(=O)CN(C)C(=O)CN(C)C(=O)CCN)C(=O)N[C@H]1CSCc2cc3cc(c2)CSC[C@H](NC(=O)[C@@H](C)NC(=O)[C@H](Cc2cccc4ccccc24)NC(=O)[C@H](CCC(=O)O)NC(=O)[C@H](CC(N)=O)NC(=O)[C@@H](C)NC1=O)C(=O)N[C@@H](CCC(=O)O)C(=O)N[C@@H](CC(=O)O)C(=O)N[C@@H](Cc1ccccc1)C(=O)N[C@@H](Cc1ccc(O)cc1)C(=O)N[C@@H](CC(=O)O)C(=O)N[C@@H](C(C)(C)C)C(=O)N[C@H](C(N)=O)CSC3 [N241] (H-[βAla][Sar][Sar][Sar][Sar][Sar][Sar][Sar][Sar][Sar][Sar]AC[dA]NE[1Nal][dA]CEDFYD[Tle]C-NH2; linker 13-19-26 via TBMB), the Kd (hemopexin domain of MT1 [1]) was about 2 nM.

In the case of “βAla-Sar10-A-C(D-Ala)NE(1Nal)(D-Ala)CEDFYD(tBuGLy)C [17-69-07-N241]”, the Kd (hemopexin domain of MT1 [2]) is listed as 1.2 nM.

Compound CCCOc1nc(NC(=O)OCc2ccc(NC(=O)[C@H](CCCNC(N)=O)NC(=O)[C@@H](NC(=O)Cn3cc(CCC(=O)NCCC(=O)N(C)CC(=O)N(C)CC(=O)N(C)CC(=O)N(C)CC(=O)N(C)CC(=O)N(C)CC(=O)N(C)CC(=O)N(C)CC(=O)N(C)CC(=O)N(C)CC(=O)N[C@@H](C)C(=O)N[C@H]4CSCc5cc6cc(c5)CSC[C@H](NC(=O)[C@@H](C)NC(=O)[C@H](Cc5cccc7ccccc57)NC(=O)[C@H](CCC(=O)O)NC(=O)[C@H](CC(N)=O)NC(=O)[C@@H](C)NC4=O)C(=O)N[C@@H](CCC(=O)O)C(=O)N[C@@H](CC(=O)O)C(=O)N[C@@H](Cc4ccccc4)C(=O)N[C@@H](Cc4ccc(O)cc4)C(=O)N[C@@H](CC(=O)O)C(=O)N[C@@H](C(C)(C)C)C(=O)N[C@H](C(N)=O)CSC6)nn3)C(C)C)cc2)c2[nH]c(=O)n(Cc3ccc(OCCN(C)C)nc3)c2n1 [I-18] ({X11-βAla}-[Sar][Sar][Sar][Sar][Sar][Sar][Sar][Sar][Sar][Sar]AC[dA]NE[1Nal][dA]CEDFYD[Tle]C-NH2; linker 12-18-25 via TBMB) has a half-life at 2 μM (Plasma stability, human; human plasma, 2 μM, 37° C., read-out: T1/2 (human)) of under 2 h, a half-life at 2 μM (Plasma stability, cyno; cyno plasma, 2 μM, 37° C., read-out: T1/2 (cyno)) of under 2 h and a half-life at 2 μM (Plasma stability, rat; rat plasma, 2 μM, 37° C., read-out: T1/2 (rat)) of under 2 h. The half-life at 2 μM (Plasma stability, mouse; mouse plasma, 2 μM, 37° C., read-out: T1/2 (mouse)) was under 2 h and the half-life at 2 μM (Plasma stability, dog; dog plasma, 2 μM, 37° C., read-out: T1/2 (dog)) was under 2 h.

C[C@H](NC(=O)CN(C)C(=O)CN(C)C(=O)CN(C)C(=O)CN(C)C(=O)CN(C)C(=O)CN(C)C(=O)CN(C)C(=O)CN(C)C(=O)CN(C)C(=O)CN(C)C(=O)CCN)C(=O)N[C@H]1CSCc2cc3cc(c2)CSC[C@H](NC(=O)[C@@H](C)NC(=O)[C@H](Cc2cccc4ccccc24)NC(=O)[C@H](CCC(=O)O)NC(=O)[C@H](CC(N)=O)NC(=O)[C@@H](C)NC1=O)C(=O)N[C@@H](CCC(=O)O)C(=O)N[C@@H](CC(=O)O)C(=O)N[C@@H](Cc1ccccc1)C(=O)N[C@@H](Cc1ccc(O)cc1)C(=O)N[C@@H](CC(=O)O)C(=O)N[C@@H](C(C)(C)C)C(=O)N[C@H](C(N)=O)CSC3 [^177Lu-loaded N241, metal not drawn] (H-[βAla][Sar][Sar][Sar][Sar][Sar][Sar][Sar][Sar][Sar][Sar]AC[dA]NE[1Nal][dA]CEDFYD[Tle]C-NH2; linker 13-19-26 via TBMB; N-terminus and C-terminus assumed) gave a tissue uptake [3] of 15 to 20 %ID/g.
